Numbering of substitutions follows the chain as printed. Read-outs that look alike come from different tables or passages of the source. One block for each binder: values may come before it.
How the values were obtained:
human alpha2-Antiplasmin [1] = target: T1, human alpha2-Antiplasmin (human, UniProt P08697 40-491); assay: cell-based or functional assay
T1 sequence: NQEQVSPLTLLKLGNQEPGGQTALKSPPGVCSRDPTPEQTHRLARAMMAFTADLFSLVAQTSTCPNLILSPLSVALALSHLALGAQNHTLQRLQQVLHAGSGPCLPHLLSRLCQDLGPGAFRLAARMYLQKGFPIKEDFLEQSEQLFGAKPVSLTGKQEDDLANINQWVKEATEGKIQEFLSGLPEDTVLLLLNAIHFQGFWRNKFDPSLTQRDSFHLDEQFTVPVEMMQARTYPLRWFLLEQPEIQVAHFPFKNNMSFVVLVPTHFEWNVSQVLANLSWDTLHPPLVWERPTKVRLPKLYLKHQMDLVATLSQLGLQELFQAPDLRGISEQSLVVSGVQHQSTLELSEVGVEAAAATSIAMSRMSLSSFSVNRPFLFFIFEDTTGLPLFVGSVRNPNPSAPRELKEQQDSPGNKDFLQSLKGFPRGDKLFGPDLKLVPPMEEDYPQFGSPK

human Plasmin = human Plasmin (human, UniProt P00747 97-580; P00747 581-810, limits assumed); assay: cell-based or functional assay
Sequence of human Plasmin (P00747 97-580 limits assumed, chain 1 of 2): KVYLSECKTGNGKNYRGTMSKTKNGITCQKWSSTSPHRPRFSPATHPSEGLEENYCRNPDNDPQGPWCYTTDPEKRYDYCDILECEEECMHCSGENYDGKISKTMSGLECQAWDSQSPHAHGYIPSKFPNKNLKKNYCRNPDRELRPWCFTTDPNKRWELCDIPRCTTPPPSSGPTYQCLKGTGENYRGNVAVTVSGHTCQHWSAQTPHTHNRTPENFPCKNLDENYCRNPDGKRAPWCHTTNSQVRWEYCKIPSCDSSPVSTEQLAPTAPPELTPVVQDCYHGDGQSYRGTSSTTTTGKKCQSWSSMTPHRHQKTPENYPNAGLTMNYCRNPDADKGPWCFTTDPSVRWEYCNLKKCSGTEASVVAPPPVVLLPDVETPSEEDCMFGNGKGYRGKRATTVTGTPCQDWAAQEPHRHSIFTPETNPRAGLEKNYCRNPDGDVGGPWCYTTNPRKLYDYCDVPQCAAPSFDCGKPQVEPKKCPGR
Sequence of human Plasmin (P00747 581-810 limits assumed, chain 2 of 2): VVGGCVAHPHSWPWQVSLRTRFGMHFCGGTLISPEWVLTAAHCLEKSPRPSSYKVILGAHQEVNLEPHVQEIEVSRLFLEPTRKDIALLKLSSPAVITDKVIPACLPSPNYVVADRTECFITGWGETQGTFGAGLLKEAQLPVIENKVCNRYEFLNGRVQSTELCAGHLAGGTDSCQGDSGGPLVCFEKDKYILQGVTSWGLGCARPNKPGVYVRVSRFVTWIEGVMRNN

human alpha2-Antiplasmin [2] = target: T1, human alpha2-Antiplasmin; assay: ELISA, coated antigen, 1st exp.
Description: (§1) A standard ELISA format was used for analyzing the binding affinity of Fabs of this invention to human and rabbit alpha-2-Antiplasmin, respectively. Antigens were coated to black 384 well Maxisorp microtiter plates (Nunc; catalogue number 460518), diluted to a concentration of 1 μg/ml in 1× Coating Buffer (Candor Bioscience; catalogue number 121125). Plates were incubated overnight at 4° C. After overnight incubation, plates were washed 2× with 50 μl/well using PBS+0.05% Tween 20. Following this, 50 μl/well of blocking buffer (Smart Block; Candor Bioscience; catalogue number 113500) was added and the plates were incubated for 1 hour at room temperature. Afterwards, plates were washed for 3× using […] PBS+0.05% Tween 20 buffer. Fabs of this invention were added at different concentrations in a final volume of 30 μl/well. Plates were incubated for 1 hour at room temperature. Following this incubation step, plates were washed for 3× using 50 μl/well of a PBS+0.05% Tween 20 buffer. For the detection of bound Fabs and full-length antibodies, the anti-Human Lambda Light Chains (Bound and Free)—Peroxidase antibody (Sigma; catalogue number A5175) was diluted by the factor of 1:10.000 in 10% Blocking Buffer. 30 μl/well of this diluted detection antibody was added and plates are incubated for 1 hour at room temperature. Following this incubation step, plates were washed for 3× using 50 μl/well of a PBS+0.05% Tween 20 buffer. As substrate, a mixture of 30 μl/well of 1:1000 diluted Amplex red (Invitrogen; catalogue number 12222; stock solution 10 mM in DMSO) and 1:10.000 of Hydrogen peroxide (Merck; catalogue number 107209; 30% stock solution) was added and the plates incubated for minutes in the dark.
(§2) For measurement, the Infinite f500 reader (Tecan) was used. Measurement mode: Fluorescence; Top reading; Ex 535 nm; Em 590 nm.
(§3) According to the methods described in Example 3 and Example 4, antibodies TPP-14323, TPP-14318, TPP-14314, TPP-14313, TPP-14308, TPP-14305, TPP-14303, TPP-14298, and TPP-14293 were tested for their ability to bind to and to block the activity of human alpha2-Antiplasmin in a dose-dependent manner. For each antibody, one dose response curve from two to three independent experiments performed in quadruplicate is shown as example in FIG. 7.1 to FIG. 7.18. (see Table 3.3)

human alpha2-Antiplasmin [3] = target: T1, human alpha2-Antiplasmin; assay: ELISA, coated antigen, 2nd exp.
Description: as §1, §2, §3

human alpha2-Antiplasmin [4] = target: T1, human alpha2-Antiplasmin; assay: ELISA, coated antigen, 3rd exp.
Description: as §1, §2, §3

human alpha2-Antiplasmin [5] = target: T1, human alpha2-Antiplasmin; assay: cell-based or functional assay; remark: listed apart in the source
human alpha2-Antiplasmin [6] = target: T1, human alpha2-Antiplasmin; assay: cell-based or functional assay; remark: listed apart in the source
human alpha2-Antiplasmin [7] = target: T1, human alpha2-Antiplasmin; assay: cell-based or functional assay; remark: listed apart in the source
human alpha2-Antiplasmin [8] = target: T1, human alpha2-Antiplasmin; assay: cell-based or functional assay; remark: listed apart in the source
human alpha2-Antiplasmin [9] = target: T1, human alpha2-Antiplasmin; assay: ELISA (Example 3), human alpha2-Antiplasmin coated, RFU
Description: as §1, with “30 μl/well of this diluted detection antibody was added and plates are incubated for 1 hour at room temperature. Following this incubation step, plates were washed for 3× using 50 μl/well of a PBS+0.05% Tween 20 buffer. As substrate, a mixture of 30 μl/well of 1:1000 diluted Amplex red (Invitrogen; catalogue number 12222; stock solution 10 mM in DMSO) and 1:10.000 of Hydrogen peroxide (Merck; catalogue number 107209; 30% stock solution) was added and the plates incubated for minutes in the dark.” left out
as §2

human alpha2-Antiplasmin [10] = target: T1, human alpha2-Antiplasmin; assay: ELISA, coated antigen, quantified unpurified antibody, 1st exp.
human alpha2-Antiplasmin [11] = target: T1, human alpha2-Antiplasmin; assay: ELISA, coated antigen, quantified unpurified antibody, 2nd exp.
human alpha2-Antiplasmin [12] = target: T1, human alpha2-Antiplasmin; assay: ELISA, coated antigen, quantified unpurified antibody, 3rd exp.
Description: as §1, §2

human alpha2-Antiplasmin [13] = target: T1, human alpha2-Antiplasmin; assay: SPR Biacore T200, antibody captured on protein G chip, A2AP as analyte, 25 C
Description: (§4) Binding assays were performed on a Biacore T200 instrument at 25° C. with a protein G sensor chip and assay buffer HBS-EP+. Antibodies were captured to ˜150 RU and analytes were used at concentrations between 1.56 and 200 nM for full kinetics. As interaction partner, alpha2-Antiplasmin from human, cynomolgus and rabbit was used. Regeneration was performed with glycine-HCl pH 1.5. Kinetic parameters were derived by fitting experimental sensorgrams to a 1:1 Langmuir binding model.

[14] = target: T2, rabbit alpha2-Antiplasmin (rabbit (Oryctolagus cuniculus)); assay: as above
T2 construct: Made in house in HEK293 cells, purified by Ni-IMAC and SEC (a His tag is implied but not described); also called rabbit A2AP; Oryctolagus cuniculus A2AP
T2 chain: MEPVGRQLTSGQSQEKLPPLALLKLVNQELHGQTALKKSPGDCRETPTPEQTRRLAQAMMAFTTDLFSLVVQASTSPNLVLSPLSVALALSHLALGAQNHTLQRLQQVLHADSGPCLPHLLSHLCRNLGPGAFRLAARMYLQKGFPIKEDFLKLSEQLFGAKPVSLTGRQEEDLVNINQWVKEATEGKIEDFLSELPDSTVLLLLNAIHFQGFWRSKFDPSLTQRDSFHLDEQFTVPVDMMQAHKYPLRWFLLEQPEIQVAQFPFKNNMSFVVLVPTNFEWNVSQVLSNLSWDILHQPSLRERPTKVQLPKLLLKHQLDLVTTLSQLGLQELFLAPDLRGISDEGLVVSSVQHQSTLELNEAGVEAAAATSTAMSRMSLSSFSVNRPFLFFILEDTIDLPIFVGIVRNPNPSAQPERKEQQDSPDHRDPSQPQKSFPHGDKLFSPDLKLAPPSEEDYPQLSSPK
Description: as §4

[15] = target: T3, cynomolgus alpha2-Antiplasmin (cynomolgus (Macaca fascicularis), UniProt P08697 28-491 (human entry)); assay: as above
T3 construct: Made in house in the same way as the rabbit protein; also called cynomolgus A2AP; Macaca fascicularis A2AP
T3 chain: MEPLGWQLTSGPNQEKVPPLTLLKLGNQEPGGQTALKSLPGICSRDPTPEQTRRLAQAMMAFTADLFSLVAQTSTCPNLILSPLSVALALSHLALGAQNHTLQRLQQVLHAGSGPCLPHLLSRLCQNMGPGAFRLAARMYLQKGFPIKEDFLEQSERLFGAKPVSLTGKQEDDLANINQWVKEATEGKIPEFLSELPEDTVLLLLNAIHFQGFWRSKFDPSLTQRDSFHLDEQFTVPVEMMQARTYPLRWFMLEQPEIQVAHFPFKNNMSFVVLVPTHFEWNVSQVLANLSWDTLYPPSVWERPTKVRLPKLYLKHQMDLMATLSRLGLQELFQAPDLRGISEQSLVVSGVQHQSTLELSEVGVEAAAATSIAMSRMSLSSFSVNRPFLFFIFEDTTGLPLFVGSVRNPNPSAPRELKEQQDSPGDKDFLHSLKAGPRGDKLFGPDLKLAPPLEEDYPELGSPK
Description: as §4

human alpha2-Antiplasmin [16] = target: T1, human alpha2-Antiplasmin; assay: cell-based or functional assay; remark: listed apart in the source
human alpha2-Antiplasmin [17] = target: T1, human alpha2-Antiplasmin; assay: ELISA (Example 3), human alpha2-Antiplasmin coated, RFU; remark: listed apart in the source
Description: as §1, with “As substrate, a mixture of 30 μl/well of 1:1000 diluted Amplex red (Invitrogen; catalogue number 12222; stock solution 10 mM in DMSO) and 1:10.000 of Hydrogen peroxide (Merck; catalogue number 107209; 30% stock solution) was added and the plates incubated for minutes in the dark.” left out
as §2
According to the method described in Example 3, these 12 antibodies were tested for ability to bind human and rabbit alpha2-Antiplasmin in a dose-dependent manner. Data generated were analyzed using the GraphPadPrism software. The binding activities of the antibodies were calculated as EC50 values. […]

function blocking activity [IC50 M], 1st exp. (human alpha2-Antiplasmin [1]): 46 nM | function blocking activity [IC50 M], 2nd exp. (human alpha2-Antiplasmin [1]): 48 nM | function blocking activity [IC50 M], 3rd exp. (human alpha2-Antiplasmin [1]): 50 nM | IC50 [M], inhibition of plasmin proteolytic activity (human Plasmin): > 5e-06 M | EC50 (human alpha2-Antiplasmin [2]): 12 nM | EC50 (human alpha2-Antiplasmin [3]): 12 nM | EC50 (human alpha2-Antiplasmin [4]): 12 nM | EC50 (read off the curve); function blocking assay (Example 4), RFU of plasmin substrate cleavage (human alpha2-Antiplasmin [5]): ~50 nM
B1: TPP-14293 hIgG1 (antibody, V domains shown)
VH: EVQLLESGGGLVQPGGSLRLSCAASGFTFDDYAMSWVRQAPGKGLEWVSAIGTGGGTYYADSVKGRFTISRDNSKNTLYLQMNSLRAEDTAVYYCDREYYDSSGYYHLDYWGQGTLVTVSS
VL: QSVLTQPPSASGTPGQRVTISCTGSSSNIGATYDVHWYQQLPGTAPKLLIYSNNQRPSGVPDRFSGSKSGTSASLAISGLRSEDEADYYCAAWDWSLSGWVFGGGTKLTVLG

IC50, A2AP function blocking assay (Example 10) (human alpha2-Antiplasmin [6]): 0.14 nM | function blocking activity [IC50 M], 1st exp. (human alpha2-Antiplasmin [7]): 0.4 nM | function blocking activity [IC50 M], 2nd exp. (human alpha2-Antiplasmin [7]): 0.5 nM | IC50 [M], inhibition of plasmin proteolytic activity (human Plasmin): > 1e-05 M | EC50 (read off the curve); function blocking assay (Example 4), RFU of plasmin substrate cleavage (human alpha2-Antiplasmin [8]): ~0.4 nM | EC50 (read off the curve) (human alpha2-Antiplasmin [9]): ~0.08 nM | EC50 (human alpha2-Antiplasmin [10]): 0.085 nM | EC50 (human alpha2-Antiplasmin [11]): 0.12 nM | EC50 (human alpha2-Antiplasmin [12]): 0.11 nM | Kd (human alpha2-Antiplasmin [13]): 14 nM | Kd [14]: 49 nM | Kd [15]: 11 nM
B2: TPP-17045 hIgG1 (antibody, V domains shown)
VH: B1 VH with D96A, R97K, Y99G
VL: B1 VL
notes: Germline variant of TPP-14308

IC50, A2AP function blocking assay (Example 10) (human alpha2-Antiplasmin [6]): 0.15 nM | function blocking activity [IC50 M], 1st exp. (human alpha2-Antiplasmin [7]): 0.43 nM | function blocking activity [IC50 M], 2nd exp. (human alpha2-Antiplasmin [7]): 0.65 nM | function blocking activity [IC50 M], 3rd exp. (human alpha2-Antiplasmin [7]): 0.5 nM | IC50 [M], inhibition of plasmin proteolytic activity (human Plasmin): > 1e-05 M | EC50 (read off the curve); function blocking assay (Example 4), RFU of plasmin substrate cleavage (human alpha2-Antiplasmin [16]): ~0.4 nM | EC50 (read off the curve) (human alpha2-Antiplasmin [17]): ~0.5 nM | EC50 (human alpha2-Antiplasmin [10]): 0.52 nM | EC50 (human alpha2-Antiplasmin [11]): 0.58 nM | EC50 (human alpha2-Antiplasmin [12]): 0.63 nM | Kd (human alpha2-Antiplasmin [13]): 11 nM | Kd [14]: 28 nM | Kd [15]: 8.7 nM
B3: TPP-17053 hIgG1 (antibody, V domains shown)
VH: B1 VH with T53S, G56S, D96A, Y99G
VL: B1 VL
notes: Germline variant of TPP-14308

From patent publication US20240010750A1 (Bayer, published 2024)
